Measurements: patent publication US20100261660A1 (published 2010)
Where a chain is given by its changes, count along the chain named.

B1: Round 2 CD28BP-8 (ligand)
chain: ITPKSVTKRVKETVMLSCDYNTSTEELTSLRIYWQKDSKMVLAILPGKVQVWPEYKNRTITDMNDNPRIVILALRLSDSGTYTCVIQKPVLKGAYKLEHLASVRLMIRADFPVPSITDIGHPAPNVKRIRCSASGGFPEPRLAWMEDGEELNAVNTTVDQDLDTELYSVSSELDSNVTNNHSIVCLIKYGELSVSQIFPWSKPKQEPPIDQLPFWVIIPVSGALVLTAVVLYCLACRHVARWKRTRRNEETVGTERLSPIYLGSAQSSG
B2: Round 2 CTLA4 A-H3-6 (ligand)
chain: GISQVTKSVKEMAALSCDYNISIDELARMRIYWQKDQQMVLSIISGQVEVWPEYKNRTFPDIINNLSLMILALRLSDKGTYTCVVQKNENGSFRREHLTSVTLSIRADFPVPSINDLGNPSPNIRRLICSTSGGFPRPHLYWLENGEELNATNTTLSQDPETKLYMISSELDFNMTSNHSFLCLVKYGDLTVSQTFYWQESKPTPSANQHLTWTIIIPVSAFGISVIIAVILTCLTCRNAAIRRQRRENEVEMQSCSQSP
B3: Round 2 CTLA4BP 2x1-e2 (ligand)
chain: VIHVTKEVKEVATLSCGHNVSDEELAQTRIHWQKEKKMVLTMMSGDMNIWPEYKNRTIFDITNNLSIVILALRPSDEGTYECVVLKYEKDAFKREHLAEVTLSVKADFPTPSISDFEIPPSNIRRIICSTSGGFPEPHLSWLENGEELNAINTTVSQDPGTELYTVSSKLDFNMTTNHSFMCLIKYGHLRVNQTFNWNTPKQEHFPDNLLPSAITLISANGIFVICCLTYCFAPRCRERRRNERLRRESIHPV
B4: Round 2 CTLA4 A-C9-9 (ligand)
chain: SGITPKSVTKRVKETVMLSCDYSTSTEELTSLRIYWQKDSKMVLAILPGKVQVWPEYKNRTFPDIINNLSLMILALRLSDRGTYTCVVQKNENGSFRREHLTSVTLSIRADFPVPSITDIGHPAPNVKRIRCSASGGFPEPRLAWMEDGEELNAVNTTVDQDLDTELYSVGSELDFNVTNNHSIVCLIKYGELSVSQIFPWSKPKQEPPIDQLPFWVIIPVSGALVLTAVVLYCLARRHVARWKRTRRNEETVGTERLSPIYLGSAQSSG
B5: Round 1 CTLA4BP-7 (ligand)
chain: VIHVTNEVKEVATLSCGHNVSGEELAQTRIYWQKEKKMVLTMMYGDMNIWPEYKNRTIFDITNNLSIVILALRPSDEGTYECVVLKYEKDAFKREHLAEVMLSVKADFPTPSITDFEIPPSNIRRIICLTSGGFPEPRLAWMKDGEELNAISTTVSQDPGTELYAVSSKLDFNMTTNHSFMCLIKYGHLRVNQTFSWNTPKQEHFPDNLLPSWAITLISVNGIFVICCLTYCFAPRCRERRRNERLRRESVRPV
notes: also called R1-7; R1 CTLA-4BP-7
B6: Round 2 CTLA4BP 2x2-f3 (ligand)
chain: VIYVTKEVKEVATLSCGHNVSVEELAQTRIYWQKEKKMVLIMMSGDMNIWPEYKNRTIFDITNNLSIVILALRPSDEGTECVVLKYEKDAFKREHLAEVTLSVKADFPTPSISDFEIPPSNIRRIICSTSGGFPEPHLSWLENGEELNAINTTVSQDPGTELYTVSSKLDFNMTTNHSFMCLIKYGHLRVNQTFNWNTPKQEHFPDNLLPSWAITLISVNGIFVICCLTYCFAPRCRERRRNERLRRESVCPV
B7: Round 2 CTLA4 A-B4-6 (ligand)
chain: ITPKSVTKRVKETVMLSCDYNTSTEELTSLRIYWQKDSKMVLAILPGKVQVWPEYKNRTITDMNDNPRIVILALRLSDKGTYTCVVQKNENGSFRREHLTSVTLSIRADFPVPTINDLGNPSPNIRRLICSTSGGFPRPHLYWLENGEELNATNTTLSQDPETKLYMISSELDFNMTSNHSFLCLVKYGDLTVSQTFYWQESKPTPSANQHLTWTIIIPVSAFGISVIIAVILTCLTCRNAAIRRQRRENEVEMQSCSQSP
B8: Round 2 CTLA4 A-F10-1 (ligand)
chain: B7 chain with F197L
B9: Round 2 CTLA4 A-F1-6 (ligand)
chain: B7 chain with N21S, T103R, S105M
B10: Round 2 CTLA4 A-E2-6 (ligand)
chain: B7 chain with K79S, T103R, S105M, S158P
B11: Round 2 CTLA4 A-H4-5* (ligand)
chain: ITPKSVTKRVKETVMLSCDYSTSTEELTSLRIYWQKDSKMVLAILPGKVQVWPEYKNRTITDMNDNPRIVILALRLSDKGTYTCVVQKNENGSFRREHLTSVTLSIRADFPVPSITDIGHPAPNVKRIRCSASGGFPEPRLYWLENGEELNATNTTVSQDPGTELYMISSELDFNVTNNHSIVCLIKYGELSVSQIFPWSKPKQEPPIDQLPFWVIIPVSGALVLTAVVLYCLACRHVARWKRTRRNEETVGTERLSPIYLGSAQSSG
B12: Round 2 CTLA4BP 2x1-c9 (ligand)
chain: VIHVTKEVKEVATLSCGHNVSAEELAQTRIYWQKEKKMVLTMMSGDMNIWPEYKNRTIFDITNNLSIVILALRPSDEGTYECVVLEYEKDAFKREHLAEVMLSVKADFPTPSITDFEIPTSNIRRIICSTSGGFPEPRLAWMEDGEELNAISTTASQDPETELYTVSSKLDFNMTTNHSFMCLIKYGHLRVNQTFNWNTPKQEHFPDNLLPSWAITLISVNGIFVICCLTHCFAPRCRERRRNERLRRESVCPV
B13: Round 1 (R1) CD28BP-71 (ligand)
chain: ITPKSVTKRVKETVMLSCDYNTSTEELTSLRIYWQKDSKMVLAILPGKVQVWPEYKNRTITDMNDNPRIVILALRLSDSGTYTCVIQKPVLKGAYKLEHLASVRLMIRADFPVPTINDLGNPSPNIRRLICSTSGGFPRPHLYWLENGEELNATNTTLSQDPETKLYMISSELDFNMTSNHSFLCLVKYGDLTVSQTFYWQESKPTPSANQHLTWTIIIPVSAFGISVIIAVILTCLTCRNAAIRRQRRENEVEMQSCSQSP
notes: also called R1clone71; Clone 71
B14: Round 2 CTLA4BP-5x6-9d (ligand)
chain: VIHVTKEVKEVATLSCGHNVSVEELAQTRIHWQKEKKMVLTMMSGDMNIWPEYKNRTIFDITNNLSIVILALRPSDEGTYECVVLKYEKDAFKREHLAEVMLSVKADFPTPSISDFEIPTSNIRRIICSTSGGFPEPHLSWLENGEELNAINTTVSQDPETELYTVSSKLDFNMTANHSFVCLIKYGHLRVNQTFNWNTPKQEHFPDNLLPSWAITLISVNGIFVICCLTYCFAPRCRERRRNERLRRESVRPV
B15: Round 2 CTLA4BP-5x2-11d (ligand)
chain: B14 chain with S114T, T120P, S140F, A176T, N177D, H178R, V220A, R241K, R242S, R245T
B16: Round 2 CTLA4BP-5x9-12c (ligand)
chain: B14 chain with S114T, T120P, V155A, A176T, V181M, R241K, R242S
B17: Round 2 CTLA4BP-5x8-1f (ligand)
chain: B14 chain with S114T, T120P, T130A, S140F, T165A, A176T, V181M, K185R, R241K, R242S
B18: Round 2 CD28D10-4 (ligand)
chain: SGITPKSVTKRVKETVMLSCDYNTSTEELTSLRIYWQKDSKMVLAILPGKVQVWPEYKNRTITDMNDNPRIVILALRLSDKGTYTCVVQKNENGSFRREHLTSVTLSIRADFPVPSITDIGHPAPNVKRIRCSASGGFPEPRLAWMEDGEELNAVNTTVDQDLDTELYSVSSELDFNVTNNHSIVCLIKYGELSVSQIFPWSKPKQEPPIDQLPFWVIIPVSGALVLTAVVLYCLACRHVARWKRTRRNEETVGTERLSPIYLGSAQSSG
B19: Round 2 CD28BP-11 (ligand)
chain: B18 chain with T24A
B20: Round 2 CD28A8-6 (ligand)
chain: B18 chain with L18P, N23S, K81S
B21: Round 2 CTLA4BP 2x3-h2 (ligand)
chain: VIHVTKEVKEVATLSCGHNVSVEELAQTRIYWQKEKKMVLTMMSGDMNIWPEYKNRTIFDITNNLSIVILALRPSDEGTYECVVLKYEKDAFKREHLAEVMLSVKADFPTPSISDFEIPPSNIRRIICSTPGGFPEPRLAWMEDGEELNAISTTVSQDPGTELYAVSSKLDFNMTTNHSFMCLIKYGHLRVNQTFNWNTTKQEHFPDNLLPSWAITLISVKGIFVICCLTYCFAPRWRERKSNERLRRESVRPV
B22: Round 2 CTLA4BP 2x4-g9 (ligand)
chain: VIHVTKEVKEVATLSCGHNVSVEELAQTRIYWQKDKKMVLTMMSGDMNIWPEYKNQTIFDITNNLSIVILALRPSDEGTYECVVLKYEKDAFKQEHLAEVMLSVKADFPTPSISDFEIPPSNIRRIICSTSGGFPEPRLAWMEDGEELNAISTTVSQDPGTELCTVSSKLDFNMTTNHSFMCLIRYGHLRVNQTFNWNTPKQEHFPDNLLPSWAITLISVKGIFVICCLTYCFAPRGRERKSNGRLRRESVHPV
B23: Round 2 CTLA4BP-5x2-10c (ligand)
chain: VIHVTKEVKEVATLSCGHNVSVEELAQTRIHWQKEKKMVLTMMSGDMNIWPEYKNRTIFDITNNLSIVILALRPSDEGTYECVVLKYEKDAFKREHLAEVMLSVKADFPTPSITDFEIPPSNIRRIICSTSGGFPEPHLSWLENGEELNAINTTVSQDPETELYTVSSKLDFNMTANHSFVCLIKYGHLRVNQTFNWNTPKQEHFPDNLLPSWAITLISVNGIFVICCLTYCFAPRCRERRNETLRRESVRPV

Key:
[1] = target: T1, Soluble CD28-Ig (extracellular domain of human CD28 fused to the Fc portion of human IgG1) (human, UniProt P10747 19-152, biotin-conjugated (NHS-biotin) in the FACS binding assays); assay: competitive FACS on transfected cells, biotin-sCD28-Ig with FITC-sCTLA-4-Ig; grade 0-2 of CD28/CTLA-4 ratio vs WT hB7-1
T1 construct: extracellular domain; bought from R&D Systems; also called sCD28-Ig; CD28-Ig Fc; not shown: Fc portion of human IgG1

[2] = target: T2, Soluble CTLA-4-Ig (extracellular domain of human CTLA-4 fused to the Fc portion of human IgG1) (human, UniProt P16410 36-161, FITC-conjugated in the FACS binding assays); assay: competitive FACS on transfected cells, FITC-sCTLA-4-Ig with biotin-sCD28-Ig; grade 0-2 of CTLA-4/CD28 ratio vs WT hB7-1
T2 construct: extracellular domain; bought from R&D Systems; also called sCTLA-4-Ig; CTLA-4-Ig Fc; not shown: Fc portion of human IgG1
T2 sequence (P16410 36-161): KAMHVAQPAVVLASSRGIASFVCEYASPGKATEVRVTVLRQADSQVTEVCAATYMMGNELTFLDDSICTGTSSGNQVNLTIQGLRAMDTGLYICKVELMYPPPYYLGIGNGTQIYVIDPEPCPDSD

Row | Binder | Binding Score [1] | Binding Score [2]
1 | B1 | 2 | 
2 | B2 |  | 1
3 | B3 |  | 1
4 | B4 |  | 0
5 | B5 |  | 1
6 | B6 |  | 1
7 | B7 |  | 1
8 | B8 |  | 1
9 | B9 |  | 1
10 | B10 |  | 1
11 | B11 |  | 1
12 | B12 |  | 1
13 | B13 | 1 | 
14 | B14 |  | 2
15 | B15 |  | 2
16 | B16 |  | 2
17 | B17 |  | 2
18 | B18 | 0 | 
19 | B19 | 2 | 
20 | B20 | 1 | 
21 | B21 |  | 0
22 | B22 |  | 1
23 | B23 |  | 2
